Data on 2 molecules can be found in PMC7969121, “Structural and Kinetic Characterization of Hyperthermophilic NADH-Dependent Persulfide Reductase from Archaeoglobus fulgidus” (Archaea, 2021).

Data set [1] has as its target T1, AfNpsr; A. fulgidus Npsr (Archaeoglobus fulgidus, UniProt O29847).
T1 construct: gene AF_0400; codon-optimized full-length gene in pET21b+, C-terminal His6-tag, E. coli BL21(DE3); FAD added; FAD domain 1-448, rhodanese domain 449-550
The data set is described as follows: X-ray crystal structure, […] Å. The settings on record: tightly bound catalytic CoA in active site near Cys 42. The data set is classed as binding.

Substrate in data set [2]: CC(C)(COP(=O)(O)OP(=O)(O)OC[C@H]1O[C@@H](n2cnc3c(N)ncnc32)[C@H](O)[C@@H]1OP(=O)(O)O)[C@@H](O)C(=O)NCCC(=O)NCCSS
The data set can be described thus: NADH oxidation at A340, Michaelis-Menten fit. The data set is classed as biochemical, Archaeoglobus fulgidus. The settings on record: 100 μM NADH, aerobic, 50 mM sodium phosphate pH 7.5, 70°C, persulfide made in situ from disulfide + 2-fold sodium sulfide, oxidase background not subtracted. The source says: (§1) NADH oxidation at A340, Michaelis-Menten fit on AfNpsr; A. fulgidus Npsr

Substrate in data set [3]: N[C@@H](CSS)C(=O)O
The data set is described as follows: NADH oxidation at A340, Michaelis-Menten fit. The data set is classed as biochemical, Archaeoglobus fulgidus. The settings on record: 100 μM NADH, aerobic, 50 mM sodium phosphate pH 7.5, 70°C, persulfide made in situ from disulfide + 2-fold sodium sulfide, oxidase background not subtracted.
Text: as §1

Substrate in data set [4]: O=C(O)c1cc(SSc2ccc([N+](=O)[O-])c(C(=O)O)c2)ccc1[N+](=O)[O-]
The data set is described as follows: TNB formation at A412, Michaelis-Menten fit. The settings on record: 100 μM NADH, aerobic, 50 mM sodium phosphate pH 7.5, 70°C, buffer background subtracted. The data set is classed as biochemical, Archaeoglobus fulgidus. The source says:
TNB formation at A412, Michaelis-Menten fit on AfNpsr; A. fulgidus Npsr

Substrate in data set [5]: NC(=O)C1=CN([C@@H]2O[C@H](COP(=O)(O)OP(=O)(O)OC[C@H]3O[C@@H](n4cnc5c(N)ncnc54)[C@H](O)[C@@H]3O)[C@@H](O)[C@H]2O)C=CC1
The data set can be described thus: NADH oxidase, A340, Michaelis-Menten fit. The settings on record: aerobic, O2 as acceptor, no di-, per- or polysulfide, 50 mM sodium phosphate pH 7.5, 70°C. The data set is classed as biochemical, Archaeoglobus fulgidus. The source says: NADH oxidase, A340, Michaelis-Menten fit on AfNpsr; A. fulgidus Npsr

In the case of `CC(C)(COP(=O)(O)OP(=O)(O)OC[C@H]1O[C@@H](n2cnc3c(N)ncnc32)[C@H](O)[C@@H]1OP(=O)(O)O)[C@@H](O)C(=O)NCCC(=O)NCCS` [CoA], the “X-ray crystal structure, 3.1 Å” value in data set [1] is “In AfNpsr, CoA is deeply buried”.

B1: AfNpsr; A. fulgidus Npsr (Archaeoglobus fulgidus DSM 4304) (protein)
chain: MNVVVIGGGAAGLKAASRIRRKDGDASITVVEAGKYVSLGRCGLPYYVGGLVHEVDNLRETTYGAVRDEAYFKKLKNIDVLTETVATEIDRSRKTVKIVRNGSEDELNYDYLVIATGARPAKPPIEGIEAEGVVTLTSAEEAEKIIEMWEEGAEKAVVIGAGFIGLESAEALKNLDMEVTVIEMMDRVAPAMLDREMAVLVENHLREKGVNVVTSTRVEKIVSQDDKVRAVIANGKEYPADVVVVATGIKPNSELAEKAGLKIGETGAIWVDEYMRTSDESIYAGGDCVETTCLVTGKKIIAPFGDVANKQGRVIGENITGGRAVFPGVIRTAIFKVFDFTAASAGVNEQMAKEAGLDYFTVIAPSPDRAHYYPQANYIRLKLIVEKGSWRVIGAQGVGMGEVAKRIDVLSTAIQAGMTIDQLANLDLAYAPPYSPALDPVITIANVAMNKRDGLFEGINVFELKEKLEKEDIVILDVRSEEEFKTRRIESEKVIHIPILELRERLDEIPRDKEIVVVCAIGLRSFEASRILKHAGFEKVKILEGGMAFWF
notes: codon-optimized full-length gene in pET21b+, C-terminal His6-tag, E. coli BL21(DE3); FAD added; FAD domain 1-448, rhodanese domain 449-550
For orientation: Km means the concentration of substrate that gives half-maximal velocity. A word on the kcat: it is the maximal rate divided by the concentration of active sites. Usually kcat/Km stands for the turnover number divided by the Michaelis constant. On to B1, for which the Km in data set [2] is reported as 0.547 ± 0.041 mM; in data set [3], 3.41 ± 0.63 mM; in data set [4] it was 0.743 ± 0.196 mM; in data set [5], 0.0206 ± 0.0051 mM. Besides, the catalytic constant (kcat) in data set [2] is 13.2 ± 0.3 s⁻¹; in data set [3], 230 ± 23 s⁻¹; in data set [4], 2.44 ± 0.14 s⁻¹; in data set [5], 7.15 ± 0.51 s⁻¹. The specificity constant (kcat/Km) is 24100 ± 1400 M⁻¹ s⁻¹ in data set [2], 67600 ± 11000 M⁻¹ s⁻¹ in data set [3], 3280 ± 480 M⁻¹ s⁻¹ in data set [4] and 347000 ± 75000 M⁻¹ s⁻¹ in data set [5].
